In patent US20240269235A1 (Gilead, published 2024):

What was measured:
[1] = target: T1, trimeric murine IL-2 receptor (IL-2Rα, IL-2Rβ, and IL-2Rγ) on CTLL-2 cells (murine, UniProt P01590 22-268; P16297 27-539; P34902 23-369); experiment: cell-based or functional assay
T1 sequence (looked up) 1: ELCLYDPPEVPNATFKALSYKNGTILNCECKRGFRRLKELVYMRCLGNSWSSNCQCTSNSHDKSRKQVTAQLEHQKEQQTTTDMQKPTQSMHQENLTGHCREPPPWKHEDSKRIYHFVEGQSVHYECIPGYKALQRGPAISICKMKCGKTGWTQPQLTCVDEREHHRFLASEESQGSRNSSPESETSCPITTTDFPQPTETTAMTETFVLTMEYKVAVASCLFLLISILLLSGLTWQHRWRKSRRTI
T1 sequence (looked up) 2: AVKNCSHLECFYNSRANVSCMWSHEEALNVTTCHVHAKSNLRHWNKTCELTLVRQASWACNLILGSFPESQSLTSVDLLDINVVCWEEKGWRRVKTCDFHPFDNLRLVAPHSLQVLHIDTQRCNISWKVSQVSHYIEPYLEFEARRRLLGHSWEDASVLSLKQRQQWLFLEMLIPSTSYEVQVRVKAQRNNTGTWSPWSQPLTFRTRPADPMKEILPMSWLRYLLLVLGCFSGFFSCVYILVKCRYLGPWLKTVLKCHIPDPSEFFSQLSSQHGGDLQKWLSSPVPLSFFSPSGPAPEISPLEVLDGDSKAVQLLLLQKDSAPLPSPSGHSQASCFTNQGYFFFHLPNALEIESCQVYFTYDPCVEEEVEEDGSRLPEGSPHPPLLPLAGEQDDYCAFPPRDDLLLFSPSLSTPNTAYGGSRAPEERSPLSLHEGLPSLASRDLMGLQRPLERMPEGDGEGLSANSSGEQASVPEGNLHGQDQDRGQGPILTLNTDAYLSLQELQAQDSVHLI
T1 sequence (looked up) 3: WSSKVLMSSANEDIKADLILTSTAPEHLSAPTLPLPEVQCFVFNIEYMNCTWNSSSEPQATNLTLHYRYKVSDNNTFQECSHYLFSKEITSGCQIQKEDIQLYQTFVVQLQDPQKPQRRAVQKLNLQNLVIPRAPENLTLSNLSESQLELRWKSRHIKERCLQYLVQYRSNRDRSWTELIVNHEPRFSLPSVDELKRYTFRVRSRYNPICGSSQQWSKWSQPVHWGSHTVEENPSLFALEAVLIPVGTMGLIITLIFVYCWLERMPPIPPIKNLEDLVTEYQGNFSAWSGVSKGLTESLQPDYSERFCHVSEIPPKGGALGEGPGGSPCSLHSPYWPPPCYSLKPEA

[2] = target: T2, IL-2Rβ (recombinant IL-2 receptor β, R&D Systems Cat #:224-2B-025/CF), biotinylated (UniProt P14784 27-239, limits assumed, biotinylated using sulfo-NHS-LC-LC-Biotin); experiment: SPR (Biacore), C1 or CM5 chip, biotinylated receptor on neutravidin
T2 construct: Bought reagent; also called IL-2RB; CD122
T2 sequence (looked up): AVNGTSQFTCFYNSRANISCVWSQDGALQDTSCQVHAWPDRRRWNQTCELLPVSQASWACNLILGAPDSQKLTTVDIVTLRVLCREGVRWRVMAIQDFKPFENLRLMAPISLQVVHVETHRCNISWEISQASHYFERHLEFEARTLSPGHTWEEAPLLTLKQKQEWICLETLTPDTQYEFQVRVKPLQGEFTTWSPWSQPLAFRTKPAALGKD

[3] = target: T3, IL-2Rα (recombinant IL-2 receptor α, R&D Systems Cat #: 223-2A/CF), biotinylated (human, UniProt P01589 22-213, limits assumed, biotinylated using sulfo-NHS-LC-LC-Biotin); experiment: as above
T3 construct: Bought reagent; also used here as the IL-2Rα partner of the in-silico analysis of PDB 2B5I (another construct); also called IL-2RA; CD25
T3 sequence (looked up): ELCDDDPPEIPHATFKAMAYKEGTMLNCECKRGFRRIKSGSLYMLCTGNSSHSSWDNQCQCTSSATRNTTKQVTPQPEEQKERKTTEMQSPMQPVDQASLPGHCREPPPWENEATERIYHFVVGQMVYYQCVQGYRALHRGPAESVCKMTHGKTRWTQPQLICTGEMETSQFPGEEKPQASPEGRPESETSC

[4] = target: T3, IL-2Rα (recombinant IL-2 receptor α, …); experiment: SPR (Biacore), CM4 chip, biotinylated receptor on neutravidin
Description: (§1) Fc-IL-2 variant binding data was collected on a Biacore platform using a CM4 chip. Neutravidin was immobilized using standard amine coupling methods and used to capture biotinylated receptors. The source, preparation and immobilization of biotinylated IL-2Rα and IL-2Rβγ heterodimer was as described in Example 4. Proleukin was used as a comparator. Fc-IL-2 variants and Proleukin were injected at various concentrations over these surfaces. Kinetic data obtained from these injections was used to extract kₒₙ and koff to calculate KD (KD=Koff/kₒₙ).

[5] = target: T4, IL-2Rβγ heterodimer, custom biotinylated Fc fusion protein (human IL-2Rβ 27-240-Fc-FLAG / human IL-2Rγ … (human, site-specific biotinylation at the AviTag)); experiment: as above
T4 construct: Extracellular regions fused to IgG1 knob-in-hole Fc subunits with tags; also called IL-2 receptor βγ heterodimer; Fc-IL-2Rβγ
Description: as §1

STAT5 activation of CTLL-2 cells, EC50 [1]: 0.003 nM | Kd [2]: 7000 nM | Kd [3]: 15 nM | Kd [4]: 60 nM | Kd [5]: 0.056 nM
B1: Fc-IL-2 heterodimer 117.46 (hIL-2v_Δ1-5_C125S), native IL-2Rα binding interface (Fc fusion)
chain 1: ESKYGPPCPPCPAPEAAGGPSVFLFPPKPKDTLMISRTPEVTCVVVDVSQEDPEVQFNWYVDGVEVHNAKTKPREEQFNSTYRVVSVLTVLHQDWLNGKEYKCKVSNKGLPSSIEKTISKAKGQPREPQVYTLPPSQEEMTKNQVSLWCLVKGFYPSDIAVEWESNGQPENNYKTTPPVLDSDGSFFLYSRLTVDKSRWQEGNVFSCSVMHEALHNHYTQKSLSLSLGGGGGSGGGGSGGGGSGGGGSSTKKTQLQLEHLLLDLQMILNGINNYKNPKLTRMLTFKFYMPKKATELKHLQCLEEELKPLEEVLNLAQSKNFHLRPRDLISNINVIVLELKGSETTFMCEYADETATIVEFLNRWITFSQSIISTLT
chain 2: ESKYGPPCPPCPAPEAAGGPSVFLFPPKPKDTLMISRTPEVTCVVVDVSQEDPEVQFNWYVDGVEVHNAKTKPREEQFNSTYRVVSVLTVLHQDWLNGKEYKCKVSNKGLPSSIEKTISKAKGQPREPQVYTLPPSQEEMTKNQVSLSCAVKGFYPSDIAVEWESNGQPENNYKTTPPVLDSDGSFFLVSRLTVDKSRWQEGNVFSCSVMHEALHNRFTQKSLSLSLGK
notes: hIgG4 knob-in-hole Fc heterodimer
